Experimental data as given in patent publication US12467929.

Key:
[1] = target: recombinant UBE3A protein (Homo sapiens (Human)) (UniProt Q05086); experiment: 2-step Simoa; capture GTX; UBE3A 125 ng/ml
[2] = target: recombinant UBE3A protein (Homo sapiens (Human)) (UniProt Q05086); experiment: Simoa; capture GTX + helper beads; 3E5 0.1 ug/ml; UBE3A 0.800 ng/ml
[3] = target: recombinant UBE3A protein (Homo sapiens (Human)) (UniProt Q05086); experiment: Simoa; capture GTX; SBG 100 pm; UBE3A 0.0320 ng/ml
[4] = target: recombinant UBE3A protein (Homo sapiens (Human)) (UniProt Q05086); experiment: Simoa; capture GTX; SBG 150 pm; UBE3A 0.160 ng/ml
[5] = target: recombinant UBE3A protein (Homo sapiens (Human)) (UniProt Q05086); experiment: Simoa; capture GTX; SBG 75 pm; UBE3A 0.00128 ng/ml
[6] = target: recombinant UBE3A protein (Homo sapiens (Human)) (UniProt Q05086); experiment: Simoa; capture GTX; 3E5 0.2 ug/ml; UBE3A 0.0320 ng/ml
[7] = target: recombinant UBE3A protein (Homo sapiens (Human)) (UniProt Q05086); experiment: Simoa; capture GTX; SBG 150 pm; UBE3A 20.0 ng/ml
[8] = target: recombinant UBE3A protein (Homo sapiens (Human)) (UniProt Q05086); experiment: Simoa; capture GTX + helper beads; 3E5 0.2 ug/ml; UBE3A 4.00 ng/ml
[9] = target: recombinant UBE3A protein (Homo sapiens (Human)) (UniProt Q05086); experiment: Simoa; capture GTX; 3E5 0.8 ug/ml; UBE3A 0.160 ng/ml
[10] = target: recombinant UBE3A protein (Homo sapiens (Human)) (UniProt Q05086); experiment: Simoa; capture GTX + helper beads; 3E5 0.1 ug/ml; UBE3A 0.00128 ng/ml
[11] = target: recombinant UBE3A protein (Homo sapiens (Human)) (UniProt Q05086); experiment: Simoa; capture GTX; 3E5 0.8 ug/ml; UBE3A 4.00 ng/ml
[12] = target: recombinant UBE3A protein (Homo sapiens (Human)) (UniProt Q05086); experiment: Simoa; capture GTX; SBG 150 pm; UBE3A 4.00 ng/ml
[13] = target: recombinant UBE3A protein (Homo sapiens (Human)) (UniProt Q05086); experiment: Simoa head-to-head, Table 11; capture GTX; UBE3A 0.032 ng/ml
[14] = target: recombinant UBE3A protein (Homo sapiens (Human)) (UniProt Q05086); experiment: Simoa; capture GTX; 3E5 0.8 ug/ml; UBE3A 0.0320 ng/ml
[15] = target: recombinant UBE3A protein (Homo sapiens (Human)) (UniProt Q05086); experiment: Simoa; capture GTX + helper beads; 3E5 0.2 ug/ml; UBE3A 0.160 ng/ml
[16] = target: recombinant UBE3A protein (Homo sapiens (Human)) (UniProt Q05086); experiment: Simoa; capture GTX, no helper beads; 3E5 0.4 ug/ml; UBE3A 0.00640 ng/ml
[17] = target: recombinant UBE3A protein (Homo sapiens (Human)) (UniProt Q05086); experiment: Simoa; capture GTX; SBG 75 pm; UBE3A 20.0 ng/ml
[18] = target: recombinant UBE3A protein (Homo sapiens (Human)) (UniProt Q05086); experiment: 3-step Simoa, 120 min bead step; capture GTX; UBE3A 500 ng/ml
[19] = target: recombinant UBE3A protein (Homo sapiens (Human)) (UniProt Q05086); experiment: Simoa head-to-head, Table 11; capture GTX; UBE3A 100 ng/ml
[20] = target: recombinant UBE3A protein (Homo sapiens (Human)) (UniProt Q05086); experiment: Simoa; capture GTX, no helper beads; 3E5 0.1 ug/ml; UBE3A 0.00128 ng/ml

Sequence of UniProt Q05086 (Q05086 whole entry): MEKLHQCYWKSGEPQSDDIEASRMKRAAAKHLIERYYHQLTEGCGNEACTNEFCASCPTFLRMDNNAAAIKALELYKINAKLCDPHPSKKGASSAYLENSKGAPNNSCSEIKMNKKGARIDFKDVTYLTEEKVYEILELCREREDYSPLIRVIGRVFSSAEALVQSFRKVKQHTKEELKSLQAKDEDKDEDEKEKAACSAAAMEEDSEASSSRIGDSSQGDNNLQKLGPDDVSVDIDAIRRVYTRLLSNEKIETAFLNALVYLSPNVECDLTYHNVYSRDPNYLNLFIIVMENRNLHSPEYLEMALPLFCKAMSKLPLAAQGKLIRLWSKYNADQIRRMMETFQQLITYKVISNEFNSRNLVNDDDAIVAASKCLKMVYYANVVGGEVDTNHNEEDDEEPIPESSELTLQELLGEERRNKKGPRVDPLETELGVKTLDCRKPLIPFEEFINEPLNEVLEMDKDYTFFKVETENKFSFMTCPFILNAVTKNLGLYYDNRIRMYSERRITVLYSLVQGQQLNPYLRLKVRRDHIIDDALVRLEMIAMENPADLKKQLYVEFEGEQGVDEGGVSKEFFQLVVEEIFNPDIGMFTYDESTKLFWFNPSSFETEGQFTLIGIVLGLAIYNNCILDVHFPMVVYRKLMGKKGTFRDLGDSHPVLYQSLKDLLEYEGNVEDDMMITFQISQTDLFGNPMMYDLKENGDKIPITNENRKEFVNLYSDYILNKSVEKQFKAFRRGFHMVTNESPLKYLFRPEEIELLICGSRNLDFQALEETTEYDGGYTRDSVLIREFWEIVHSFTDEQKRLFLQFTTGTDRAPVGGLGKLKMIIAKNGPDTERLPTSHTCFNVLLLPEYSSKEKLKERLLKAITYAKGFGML

NB500-240 (Novus) (antibody)
AEB1 [1]: 0.263 | AEB2 [1]: 0.241 | Ave AEB [1]: 0.252 | Signal to Background [1]: 77.1

anti-UBE3A antibody 3E5 (SAB1404508-100 ug, Millipore-Sigma)
AEB1 [2]: 0.167 | AEB2 [2]: 0.166 | Average AEB [2]: 0.166 | Signal to Background [2]: 29 | AEB1 [3]: 0.0199 | AEB2 [3]: 0.0201 | AEB3 [3]: 0.0192 | Average AEB [3]: 0.0197 | Signal to Background [3]: 2.35 | AEB1 [4]: 0.0773 | AEB2 [4]: 0.0769 | Average AEB [4]: 0.0771 | Signal to Background [4]: 5.82 | AEB1 [5]: 0.0046 | AEB2 [5]: 0.0045 | AEB3 [5]: 0.0047 | Average AEB [5]: 0.0046 | Signal to Background [5]: 1.06 | AEB1 [6]: 0.0619 | AEB2 [6]: 0.0621 | AEB3 [6]: 0.0587 | Average AEB [6]: 0.0609 | Signal to Background [6]: 1.55 | AEB1 [7]: 5.87 | AEB2 [7]: 5.57 | AEB3 [7]: 5.72 | Average AEB [7]: 5.72 | Signal to Background [7]: 431 | AEB1 [8]: 0.892 | AEB2 [8]: 0.846 | Average AEB [8]: 0.869 | Signal to Background [8]: 89.8 | AEB1 [9]: 0.235 | AEB2 [9]: 0.263 | AEB3 [9]: 0.226 | Average AEB [9]: 0.241 | Signal to Background [9]: 1.97 | AEB1 [10]: 0.0065 | AEB2 [10]: 0.0083 | Average AEB [10]: 0.0074 | Signal to Background [10]: 1.29 | AEB1 [11]: 3.18 | AEB2 [11]: 3.38 | AEB3 [11]: 3.16 | Average AEB [11]: 3.24 | Signal to Background [11]: 26.4 | AEB1 [12]: 0.907 | AEB2 [12]: 0.938 | AEB3 [12]: 0.927 | Average AEB [12]: 0.924 | Signal to Background [12]: 69.7 | AEB1 [13]: 0.0127 | AEB2 [13]: 0.0142 | Ave AEB [13]: 0.0135 | Signal to Background [13]: 1.65 | AEB1 [14]: 0.144 | AEB2 [14]: 0.138 | AEB3 [14]: 0.152 | Average AEB [14]: 0.145 | Signal to Background [14]: 1.18 | AEB1 [15]: 0.0751 | AEB2 [15]: 0.0703 | Average AEB [15]: 0.0727 | Signal to Background [15]: 7.51 | AEB1 [16]: 0.0228 | AEB2 [16]: 0.0232 | Average AEB [16]: 0.023 | Signal to Background [16]: 1.18 | AEB1 [17]: 2.44 | AEB2 [17]: 2.81 | AEB3 [17]: 2.75 | Average AEB [17]: 2.67 | Signal to Background [17]: 611 | AEB1 [18]: 16.8 | AEB2 [18]: 16.8 | Ave AEB [18]: 16.8 | Signal to Background [18]: 9850 | AEB1 [19]: 3.35 | AEB2 [19]: 3.51 | Ave AEB [19]: 3.43 | Signal to Background [19]: 419 | AEB1 [20]: 0.005 | AEB2 [20]: 0.0075 | Average AEB [20]: 0.0062 | Signal to Background [20]: 1.09
